Assay results reported in paper PMC5454113.

Legend:
[1] = target: activated factor X (FXa) (UniProt P00742); test: enzyme inhibition kinetics (chromogenic substrate); FXa 0.3 nM, TFPI 0–16 nM, S-2765 200 uM, 25 uM phospholipids (DOPC/DOPS/DOPE 60:20:20), 5 mM CaCl2, 25 °C, 60 min; no protein S, no FV; Ki = encounter complex, Ki* = overall dissociation constant
[2] = target: activated factor X (FXa) (UniProt P00742); test: enzyme inhibition kinetics (chromogenic substrate); as a1, with 30 nM recombinant FV, no protein S
[3] = target: activated factor X (FXa) (UniProt P00742); test: enzyme inhibition kinetics (chromogenic substrate); as a1, with 100 nM protein S, no FV
[4] = target: activated factor X (FXa) (UniProt P00742); test: enzyme inhibition kinetics (chromogenic substrate); as a1, with 30 nM recombinant FV and 100 nM protein S

Chain of UniProt P00742 (P00742 41-179, chain 1 of 2): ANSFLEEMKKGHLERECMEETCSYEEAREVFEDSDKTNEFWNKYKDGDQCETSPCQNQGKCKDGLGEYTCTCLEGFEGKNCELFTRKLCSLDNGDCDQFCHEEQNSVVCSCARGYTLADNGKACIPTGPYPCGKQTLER
Chain of UniProt P00742 (P00742 235-488, chain 2 of 2): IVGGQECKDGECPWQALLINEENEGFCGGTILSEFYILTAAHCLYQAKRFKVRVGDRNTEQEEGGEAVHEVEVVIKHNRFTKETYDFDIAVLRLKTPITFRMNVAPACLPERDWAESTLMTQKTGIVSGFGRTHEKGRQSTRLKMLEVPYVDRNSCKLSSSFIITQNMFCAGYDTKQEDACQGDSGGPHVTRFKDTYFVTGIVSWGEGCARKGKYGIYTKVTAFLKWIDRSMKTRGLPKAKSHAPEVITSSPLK

Ki [1]: 50 pM
Ki of the encounter complex (first step) [1]: 5690 pM
Ki [2]: 310 pM
Ki of the encounter complex (first step) [2]: 7410 pM
Ki [3]: 47 pM
Ki of the encounter complex (first step) [3]: 4570 pM
Ki [4]: 28 pM
Ki of the encounter complex (first step) [4]: 1610 pM
Substance: TFPI ΔCT (aa 1–249) (domain or fragment)
